Tests used:
[1] = target: human FcRn complex (FCGRT and beta-2 microglobulin), recombinant, purified (human) (UniProt P55899); test: SPR, anti-human Fab capture, pH 6, steady state
[2] = target: human FcRn complex (FCGRT and beta-2 microglobulin), recombinant, purified (human) (UniProt P55899); test: SPR, anti-human Fab capture, pH 7.4, steady state
[3] = target: human FcRn complex (FCGRT and beta-2 microglobulin), recombinant, purified (human) (UniProt P55899); test: SPR, protein L capture, pH 6, kinetic
[4] = target: human FcRn (FCGRT and beta-2 microglobulin) expressed on MDCK II cells (human) (UniProt P55899); test: cell-based or functional assay
[5] = target: human FcRn complex (FCGRT and beta-2 microglobulin), recombinant, purified (human) (UniProt P55899); test: SPR, protein L capture, pH 7.4, steady state
[6] = target: murine FcRn complex (Fcgrt and beta-2 microglobulin), recombinant (mouse) (UniProt Q61559); test: binding to mFcRn at pH 7.4 (FIG. 2D)
murine FcRn complex (Fcgrt and beta-2 microglobulin), recombinant (mouse), sequence (Q61559 22-297, one chain of several): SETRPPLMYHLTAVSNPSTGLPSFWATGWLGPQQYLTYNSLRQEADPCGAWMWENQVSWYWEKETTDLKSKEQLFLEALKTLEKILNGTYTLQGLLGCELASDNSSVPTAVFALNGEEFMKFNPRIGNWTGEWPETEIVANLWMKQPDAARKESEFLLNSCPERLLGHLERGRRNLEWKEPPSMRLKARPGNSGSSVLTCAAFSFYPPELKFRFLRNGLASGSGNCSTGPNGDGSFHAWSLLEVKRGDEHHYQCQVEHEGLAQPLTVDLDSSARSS

[7] = target: murine FcRn complex (Fcgrt and beta-2 microglobulin), recombinant (mouse) (UniProt Q61559); test: binding to mFcRn at pH 6.0 (FIG. 2D)

Row | Substance | Kd [1] [µM] | Kd [2] [µM] | Kd [3] [µM] | koff [3] [s⁻¹] | kon [3] [M⁻¹ s⁻¹] | Transcytosis Normalized to WT (normalized to WT) [4] | Kd [5] [µM] | fold improvement of binding over wild-type hIgG1 [6] [fold] | fold improvement of binding over wild-type hIgG1 [7] [fold]
1 | anti-Abeta hIgG1 antibody, Fc modification D1 (M252Y/N434Y) | 0.014 | 1.15 |  |  |  |  |  |  | 
2 | anti-Abeta hIgG1 antibody, Fc modification Q1 (M252Y/T307Q/Q311I/N434Y) | 0.0127 | 0.206 |  |  |  |  |  |  | 
3 | anti-Abeta hIgG1 antibody, Fc modification Q2 (M252Y/T307Q/M428L/N434Y) | 0.0102 | 0.482 |  |  |  |  |  |  | 
4 | anti-Abeta hIgG1 antibody, Fc modification Q3 (M252Y/T307Q/N434Y/Y436I) |  | 0.206 |  |  |  |  |  |  | 
5 | anti-Abeta hIgG1 antibody, Fc modification Q4 (M252Y/Q311I/M428L/N434Y) | 0.0128 | 0.667 |  |  |  |  |  |  | 
6 | anti-Abeta hIgG1 antibody, Fc modification Q5 (M252Y/Q311I/N434Y/Y436I) | 0.0108 | 0.265 |  |  |  |  |  |  | 
7 | anti-Abeta hIgG1 antibody, Fc modification Q6 (M252Y/M428L/N434Y/Y436I) | 0.0102 | 0.367 |  |  |  |  |  |  | 
8 | anti-Abeta hIgG1 antibody, Fc modification Q95 (M252Y/T307Q/Q311A/N434Y) | 0.0082 | 0.34 |  |  |  |  |  |  | 
9 | anti-Abeta hIgG1 antibody, Fc modification T94 (M252Y/N286E/N434Y) | 0.0101 | 0.521 |  |  |  |  |  |  | 
10 | anti-Abeta hIgG4 antibody, Fc modification Q2 (M252Y/T307Q/M428L/N434Y) |  | 0.339 |  |  |  |  |  |  | 
11 | anti-Abeta hIgG4 antibody, Fc modification Q3 (M252Y/T307Q/N434Y/Y436I) | 0.0059 | 0.158 |  |  |  |  |  |  | 
12 | anti-BACE1 hIgG1 antibody, Fc modification D1 (M252Y/N434Y) | 0.013 | 1.01 | 0.0287 | 0.0264 | 919000 | 79 | 0.963 |  | 
13 | anti-BACE1 hIgG1 antibody, Fc modification Q1 (M252Y/T307Q/Q311I/N434Y) | 0.0066 | 0.157 | 0.00469 | 0.00349 | 743000 | 132 | 0.197 |  | 
14 | anti-BACE1 hIgG1 antibody, Fc modification Q2 (M252Y/T307Q/M428L/N434Y) | 0.0087 | 0.211 | 0.0111 | 0.00648 | 582000 | 155 | 0.663 |  | 
15 | anti-BACE1 hIgG1 antibody, Fc modification Q5 (M252Y/Q311I/N434Y/Y436I) | 0.0088 |  | 0.00509 |  |  | 133 | 0.252 |  | 
16 | anti-BACE1 hIgG1 antibody, Fc modification Q7 (M252Y/Q311A/N434Y/Y436I) | 0.0073 | 0.269 | 0.006 | 0.00529 | 920000 | 108 | 0.295 |  | 
17 | anti-BACE1 hIgG1 antibody, Fc modification T3 (M252Y/Q311I/N434Y) | 0.0091 | 0.307 | 0.014 |  |  | 137 |  |  | 
18 | anti-BACE1 hIgG4 antibody, Fc modification Q2 (M252Y/T307Q/M428L/N434Y) | 0.0066 | 0.37 |  |  |  |  |  |  | 
19 | anti-BACE1 hIgG4 antibody, Fc modification Q3-IgG4 (M252Y/T307Q/N434Y/Y436I) | 0.0048 | 0.124 | 0.00387 |  |  | 87 |  |  | 
20 | anti-BACE1 hIgG4 antibody, Fc modification Q5-IgG4 (M252Y/Q311I/N434Y/Y436I) | 0.0074 | 0.23 | 0.0134 | 0.0135 | 1.01e+06 | 95 | 0.322 |  | 
21 | hIgG1 antibody comprising modified Fc M252Y/S254T/T256E (YTE) |  |  | 0.154 | 0.0635 | 414000 | 1.9 |  | 10 | 10

The next lines start with the values.

Row | Kd [1] [µM] | Kd [2] [µM] | Kd [3] [µM] | koff [3] [s⁻¹] | kon [3] [M⁻¹ s⁻¹] | Transcytosis Normalized to WT (normalized to WT) [4] | Kd [5] [µM] | fold improvement of binding over wild-type hIgG1 [6] [fold] | fold improvement of binding over wild-type hIgG1 [7] [fold] | Substance
22 | 0.0082 | 0.292 |  |  |  |  |  |  |  | anti-Abeta hIgG1 antibody, Fc modification Q7 (M252Y/Q311A/N434Y/Y436I)
23 | 0.0116 | 0.554 |  |  |  |  |  |  |  | anti-Abeta hIgG1 antibody, Fc modification T3 (M252Y/Q311I/N434Y)
24 | 0.0063 | 0.165 |  |  |  |  |  |  |  | anti-Abeta hIgG4 antibody, Fc modification Q1 (M252Y/T307Q/Q311I/N434Y)
25 |  | 0.151 |  |  |  |  |  |  |  | anti-Abeta hIgG4 antibody, Fc modification Q5 (M252Y/Q311I/N434Y/Y436I)
26 | 0.0065 | 0.17 |  |  |  | 137 | 0.202 |  |  | anti-BACE1 hIgG1 antibody, Fc modification Q3 (M252Y/T307Q/N434Y/Y436I)
27 | 0.0089 | 0.194 | 0.00772 | 0.00494 | 639000 | 155 | 0.38 |  |  | anti-BACE1 hIgG1 antibody, Fc modification Q6 (M252Y/M428L/N434Y/Y436I)
28 | 0.0069 | 0.24 | 0.00735 | 0.00608 | 828000 | 100 | 0.228 |  |  | anti-BACE1 hIgG1 antibody, Fc modification Q95 (M252Y/T307Q/Q311A/N434Y)
29 |  | 0.38 | 0.0136 |  |  | 87 | 0.452 |  |  | anti-BACE1 hIgG1 antibody, Fc modification T94 (M252Y/N286E/N434Y)
30 |  |  | 0.00354 | 0.00314 | 887000 | 94 | 0.123 |  |  | anti-BACE1 hIgG1 antibody, Fc modification T96 (M252Y/V308P/N434Y)
31 | 0.0052 | 0.12 | 0.00522 |  |  | 82 | 0.114 |  |  | anti-BACE1 hIgG4 antibody, Fc modification Q1-IgG4 (M252Y/T307Q/Q311I/N434Y)
